PMC3427744

Tests used:
commercial rituximab = assay: SPR
[1] = molecular target: non-fucosylated G2 glycoform of rituximab (10); assay: SPR

Row | Kd (commercial rituximab) [nM] | Kd [1] [nM] | Substance
1 | 1040 | 123 | FcγRIIIa-F158 (from UniProt P08637 17-254) (receptor)
2 | 2000 |  | FcγRIIb (from UniProt P31994 43-310) (receptor)
